Test results published in the nanobody polyreactivity screen of Harvey et al. (2022).

Assay: yeast display, Sf9 membrane polyspecificity reagent, FACS + sequencing; frameworks hold sequencing errors
Method in brief: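 Nanobodies came from a synthetic yeast display library in Saccharomyces cerevisiae BJ5465, induced with galactose for 36–48 hours and stained for 1 hour at 4 °C with 10% biotinylated, detergent-solubilized Sf9 membrane reagent. Cells were enriched on streptavidin microbeads and then FACS-sorted, with low and high (top ~1%) gates set on anti-HA fluorescence for expression and streptavidin fluorescence for reagent binding. Each polyreactivity label reflects the gate a clone came from. Genes were amplified by colony PCR, sequenced by MiSeq 2 × 250 and filtered by CDR length.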

Row | Sequence | polyreactivity (PSR sort gate)
1 | QVQLVESGGGLVQAGGSLRLSCAASGRTLYWYAMGWYRQAPGKEREFVAAITWRGGSTSYADSVKGRFTISRDNAKNTVYLQMNSLKPEDTAVYYCAASSFRSYYSGKYDYWGQGTQVTVSS | high polyreactivity
2 | QVQLVESGGGVVQAGGSLRLSCAASGSTFVFYTMGWSRQAPGKEREFVASISGSGGSTYYADSVKGRFTISRDNAKNTVYLQMNSLKPEDTAVYYCAAGYPYYYWTPYYYWGQGTQVTVSS | high polyreactivity
3 | QVHLVESGGCLVQAGGSLRLSCAAYGSIFPKYALGWYRQAPGKERELVATISYRGGRTYYADSVKRRFTISRDNAKNTVYLQMNSLKPEDTAVYYWNAHSQAKLDYWGQGTQVTVSS | low polyreactivity
4 | QVQLVESGGGLVQAGGSLRLSCAASGSIFGTNAMGWYRQAPGKERELVATITSAGSTYYADSVKGRFTISRYNAKNTVYLQMNSLKPEDTAVYYCARQATGYVYREYEYWGQGTQVTVSS | low polyreactivity
5 | QVQLVESGGGLVQAGGSLRLSCAASGRIYDYMGWYRQAPGKERELVAAITSSGVSTYYADSVKGRFTISRDNAKNTVYLQMNSLKPEDTAVYYCAAERVYIVWFTHEIFNYWGQGTQVTVSS | high polyreactivity
6 | QVQHVESRGGLVQAGGSLRLSCAASGLILSGYTMGWYRQAPGKERELVAAISRSGGSTYYADSVKGRFTISRDNAKNTVYLQMNSLKPEDTAVYYCAKVPIYRYGVWAMNYWGQGTLVTVSS | high polyreactivity
7 | QVQLVESGGGLVQAGGSHRLSFAASGSIFTRYAMGWYRPAHGKEREFVAGISWTGGSTYYADSVKGRFTISRDIAKNTVYLQMYRLKPEDTGVYYCAAGYWYSAFSGWWDYSDLYYWGQGTQVTVSS | high polyreactivity
8 | QVQLVESGGGLVQAGGSLRLSCAASGYIFSLNAMGWYRQAPGKERELVAGIRKRGGSTYYADSVKGRFTISRDNAKNTVYLQMNSLKPEDTAVYYCAAQPALTYRFYYWGQGTQVTVSS | high polyreactivity
9 | QVQLVESGGGLVQAGGSLRLSCAASGSILIVYAMGWYRQAPGKERELVAAITRGGRTNYADSVKGRFTISRDNAKNTVYLQMNSLKPEDTAVYYCAARVLPANVKPYNYWGQGTQVTVSS | high polyreactivity
10 | QVQLVDSGGVLVQAVGSLRLSCAASGLIFYSNAMGWYRQAPGKERELVATISWSGGSTYYADSVKGRFTSSRDNAKNTVYLQMNSLTPEDTAVYYCAAVTHPAWAVEYDYWGQGTQVTVSS | high polyreactivity
11 | QVQLVESGGGLVQAGGSLRLSCAASGSTFVDYYMGWYRQATGKERELVAAITYSGARTYYADSVKGRFTISRDNAKNTVYLQMNSLKPEDTAVYYCNADQSTASDQLEFDYWGQGTQVTVSS | low polyreactivity
12 | QVQLVETGGGLVQAGVSLRLSCAASGRTWGYDMGWYRQAPGKERELVAAIRNGASTYYADSVKGRFTISRDNAKNTVYLQMNSLKPEDTAVYYCAADYTVRVVATYDYWGQGTQVTVSS | low polyreactivity
13 | QVQLVESGGGLVQAGGSLRLSCAASGSIFNTYVMGWYRQAPGKERELVAAITSSGGRTYYADSVKGRFTISRDNAKNTVYLQMNSLKPEDTAVYYCNTAQRWVGRNDYWGQGTQVTVSS | high polyreactivity
14 | QVQLVESGGGLDQAGGSLRLSCAASGIIFWYYAMGWYRQAPGKEMELVAAINWNGDSTHYADSVKGRFTISRDNAKNTVYLQMNILKPEDTAVYYCAARTYTLRGVYFSGYNYWGQATQVTVSS | low polyreactivity
15 | QVQLVESGGGLVQAGGSLRLSCAASGRILYSYTMGWYRQAPGKEREFVAAITRSGGGTYYADSVKGRFTISRDNAKNTVYLQMNSLKPEDTAVYYCAYYTYYLAYGYWGQGTQVTVSS | high polyreactivity
16 | QVQLVESGGGLVQAGGSLRLSCAASRGIFGYNAMGWYRQAPGKERELVARISSSGGSTYYADSVKGRFTISRDNAKNTVYLQMNSLKPEDTAVYYCNTASNRYPGWRAEFDYWGQGTQVTVSS | low polyreactivity
17 | QVQLLESGGGLVQAGGSLRLSCAASGRIFSAYAMGWSRQAPGTERELVAAISWSGGSTYYADSVKGRFTISRDNAKNTVYLQMNSLKPEDTAVYYCAADYFYTSWYQHDYWGQGTQVTVSS | low polyreactivity
18 | QVQLVESGGGLVQAGGSLRLSCAASGNIFPWYAMGWYRQAPGKERELVASITVSGGRTYYADSVKGRFTISRDNAKNTVYLQMNSLKPEDTAVYYCNKYLVWYVPGAYNSWGQGTQVTVSS | high polyreactivity
19 | QVQLVESGGGLVQAGGSLRLSCAASGRIFGYNAMGWSRQAPGKERELVAAISYSGGSTYYADSVKGRFTISRDNAKNTVYLQMNSLKPEDTAVYYCAARHPYYYHYDYWGQGTQVTVSS | high polyreactivity
20 | QVQLVESGGGLVQAGGSLRLSCAASGSTFGSYAMGWHRQAPGKERELVASITYSGDSSNYSDSVKGRFTLSRDNAKNTVYLQMNSLKPEDTAVYYCKARAVMTQYIQKRYDYWGQGTQVTVSS | low polyreactivity
21 | QVQLVESGGGLVQAGGSLRLSCAASGSIVIINAMGWYRQAPGKERELVASMTRNGGSTYYADSVKGRFTISRDNPKNTVEFQMNSLKPDDTAVYYCAATYYRFPSLIAYVRYDYWGQGTQVTVSS | high polyreactivity
22 | QVQLVESGGGLVQAGGSLRLSCAASGSTFYFYAMGWYRQAPGKERELVAAISSSGGSTYYADSVKGRFTISRDNAKNTVYLQMNSLKPEDTAVYYCAADDAIYDSLDYWGQGTQVTVSS | low polyreactivity

Row | Sequence | polyreactivity (PSR sort gate)
23 | QVQLVESGGGLVQARGSLRLSCAASVIIFRLYGRGWYRQAPGKEREFVATITWRGGRTNYADSVKGRFTISRDNAKNTVYLQMNSLKPEDTAVYYCAKVVRYARSNEYDSWGQGTQVTVSS | low polyreactivity
24 | QVQLVESGGGLVQAGGSLRLSCAASGIIFIGNAMGWYRQAPGKERELVAAISRRGGRTYYADSVKGRFTISRDNAKNTVYLQMNSLKPEDTAVYYCNAEITVNDDDYWGQGTQVTVSS | low polyreactivity
25 | QVQLVASGGGLVQAGGSLRLSCAASGSTFYYNAMGWSRQAPGKERELVAVISTSDGSTNYADSVKRRFTISSDNAKNTVYLQMISLKPEDTAVYYCAADYSESRRFDYWGQGTQVTVSS | low polyreactivity
26 | QVQLVESGGGLVQAGGSLRLSCAASGRTIRGYTMGWYRQAPGKERELVATITKRGGSTTYADSVKGRFTISRDNAKNTVYLQMNSLKPEDTAVYYCNKDTITSTWTPYTSWFGYWGQGTQVTVSS | high polyreactivity
27 | QVQLVESGGGLVQAGGSLRLSCAASGRTFSDYAMGWYRQAPAKERELVAAISKSGGRTYYADSVKGRFTISRDNAKNTVYLQMNSLKPEDTAVYYCAADPLTELAFYSWGQGTQVTVSS | high polyreactivity
28 | QVQLVESGGGLVQAGGSLRLSCAASGGIFARNVMGWYRQAPGKERELVAAISGSGGSTYYADSVKGRFTISRDNAKNTVYLQMNSLKPEDTAVYYCAARTPGVSVYKDGYWGQGTQVTVTS | low polyreactivity
29 | QVQLVESGGGLVQAGGSLRLSCAASGSTFVRYAMGWYRQAPGKERELVAGISSGDRTYYADSVKGRFTISRDNAKNTVYLQMNSLKPEDTAVYYCNARPVYLLEGYYWGQGTQVTVSS | low polyreactivity
30 | QVQLVESGGGLVQAGGILRLSCAASGHIFFYYNMGWYRQAPGKERELVAGITIGGSTNYADSVKGRFTISRDNAKNTVNLQMNSLTPEDTAVYYCAKGGEVSQGYTDEYDYWGLGTQVTVSS | low polyreactivity
31 | QVQLVESGVGLVQAGGSLRLSCAASGNILGYNAIGWYRQAPGKETELVAAISWIGGSTYYADSVKGRFTISRDNAKNTVYLQMNSLKPEDTAVYYCAARYRTYFTYEYWGQGTQVTVSS | low polyreactivity
32 | QVQLVESGGGLVQAGGSLRLSCAASGITFITYVMGWYRQAPGKERELVAAISLRGGRTSYADSVKGRFTISRDNAKNTVYLQMNSLKPEDTAVYYCAARAYYTRYDYWGQGTQVTVSS | high polyreactivity
33 | QVQLVESGGGLVQAGGSLRLSCAASGFIFSGYAMGWYRQAPGKERELVAAITSSGGNTYYADSVKGRFTISRDNAKNTVYLQMNSLKAEDTAVYYCARYSIFRWTRDEYWGQGTQVTVSS | high polyreactivity
34 | QVQLVESGGGLVQAGGSLRLSCAASGLIFSTYAMGWYRQAPGKERELVAAINSGGGNTYYADSVKGRFTISRDNAKNTVYLQMNSLKPEDTAVYYCNAQWRRHPGIWHYGYWGQGTQVTVSS | low polyreactivity
35 | QVQLVESGGGLVQAGGSLRLSCAASGRIFRNYAMGWYRQAPGKERELVAAISYTTGSTYYADSVKGRFTISRDNAKNTVYLQMNSLKPEDTAVYYCATTDWYFKFYYWGQGTQVTVSS | high polyreactivity
36 | QVQLVESGGGLVQAGGSLRLSCAASGYIFQVNAMGWYRQAPGKERELVASISCGGSTNYADSVKGRFTISRDNAKNTVYLQMNSLKPEDTAVYYCAAELGYPYLQYVYWSQYLYDYWGQGTQVTVSS | low polyreactivity
37 | QVQLVESGGGLVQAGGSLRLSCAASGRIFWGYSMGWYRQAPGKERELVAAITSGGRTYYADSVKGRFTISRDNAKNTVYLQMNSLKPEDTAVYYCAAVYVPYYWLGRSRGLDYWGQGTQVTVSS | high polyreactivity
38 | QVQLVESGGGLVQAGGSLRLSCAASGSIFSIYAMGWYRQAPGKERELVAAISSGGSTYADSVKGRFTISRDNAKNTVYLQMNSLKPEDTAVYYCAADRRGYRGYDYWGQGTQVTVSS | low polyreactivity
39 | QVQLVESGGGLVQAGGSLRLSCAASGLIFYLYAMGWYRQAPGKERELVAAITSGGGSTYYADSVKGRFTISRDNAKNTVYLQMNSLKPEDTAVYYCAARLVLYITVVYEDDYWGQGTQVTVSS | low polyreactivity
40 | QVQLHESGGVQAGGSLRLSCAASGYISRSDVMGWYRQAPGKERELVATINNGTITYYADSVKGRFTISRDNAKNTVYLQMNSLKPEDTAVHYCAVVQSDTDSLYYWGQGTQVTVSS | low polyreactivity
41 | QDQLVESGGGLVQAGGSLRLTCAASGSIFTAYTMGWYRQAPVKERELVAAITERGGSTYYADSVKGRFTISRDNAKNTFYLQMNRMKPEDTAVYYCAASTLKDIYLWFRVDYWGQGTQVTLSS | low polyreactivity
42 | QVQHVESGGSLVQAGGSLRLSCAASGRTFRRYAMGWFRHAPGKAWELVAAIRSDGATYYADSVKGRFTISRDNAKNTVYLQMNSLKPEDTAVYYCNAVYVSSVTGHVDWGQGTQVTVSS | low polyreactivity
43 | QVQLVQSGGGLVQAGGSLRLSCAASGSTFSTYAMGWYRQAPGKERELVAAISRYGGLTNYADSVKGRFTISRDNAKNTVYLQMNSLKPEDTAVYYCAARRYDTGNGYDYWGQGTQVTVSS | high polyreactivity
